Test results reported in patent publication US20230407373A1 (priority 2020, published 2023).

B1: MTPAP (protein, UniProt Q9NVV4 38-582, looked up)
Poly(A) RNA polymerase, …: KDLRRDEQPSGSVETGFEDKIPKRRFSEMQNERREQAQRTVLIHCPEKISENKFLKYLSQFGPINNHFFYESFGLYAVVEFCQKESIGSLQNGTHTPSTAMETAIPFRSRFFNLKLKNQTSERSRVRSSNQLPRSNKQLFELLCYAESIDDQLNTLLKEFQLTEENTKLRYLTCSLIEDMAAAYFPDCIVRPFGSSVNTFGKLGCDLDMFLDLDETRNLSAHKISGNFLMEFQVKNVPSERIATQKILSVLGECLDHFGPGCVGVQKILNARCPLVRFSHQASGFQCDLTTNNRIALTSSELLYIYGALDSRVRALVFSVRCWARAHSLTSSIPGAWITNFSLTMMVIFFLQRRSPPILPTLDSLKTLADAEDKCVIEGNNCTFVRDLSRIKPSQNTETLELLLKEFFEYFGNFAFDKNSINIRQGREQNKPDSSPLYIQNPFETSLNISKNVSQSQLQKFVDLARESAWILQQEDTDRPSISSNRPWGLVSLLLPSAPNRKSFTKKKSNKFAIETVKNLLESLKGNRTENFTKTSGKRTISTQT
B2: HNRNPF (protein, UniProt P52597 1-415, looked up)
Heterogeneous nuclear …: MMLGPEGGEGFVVKLRGLPWSCSVEDVQNFLSDCTIHDGAAGVHFIYTREGRQSGEAFVELGSEDDVKMALKKDRESMGHRYIEVFKSHRTEMDWVLKHSGPNSADSANDGFVRLRGLPFGCTKEEIVQFFSGLEIVPNGITLPVDPEGKITGEAFVQFASQELAEKALGKHKERIGHRYIEVFKSSQEEVRSYSDPPLKFMSVQRPGPYDRPGTARRYIGIVKQAGLERMRPGAYSTGYGGYEEYSGLSDGYGFTTDLFGRDLSYCLSGMYDHRYGDSEFTVQSTTGHCVHMRGLPYKATENDIYNFFSPLNPVRVHIEIGPDGRVTGEADVEFATHEEAVAAMSKDRANMQHRYIELFLNSTTGASNGAYSSQVMQGMGVSAAQATYSGLESQSVSGCYGAGYSGQNSMGGYD
B3: SLC25A5 (protein, UniProt P05141 1-298, looked up)
ADP/ATP translocase 2: MTDAAVSFAKDFLAGGVAAAISKTAVAPIERVKLLLQVQHASKQITADKQYKGIIDCVVRIPKEQGVLSFWRGNLANVIRYFPTQALNFAFKDKYKQIFLGGVDKRTQFWLYFAGNLASGGAAGATSLCFVYPLDFARTRLAADVGKAGAEREFRGLGDCLVKIYKSDGIKGLYQGFNVSVQGIIIYRAAYFGIYDTAKGMLPDPKNTHIVISWMIAQTVTAVAGLTSYPFDTVRRRMMMQSGRKGTDIMYTGTLDCWRKIARDEGGKAFFKGAWSNVLRGMGGAFVLVLYDEIKKYT
B4: TRMT10C (protein, UniProt Q7L0Y3 40-403, looked up)
tRNA methyltransferase 10 …: MSSKIPAVTYPKNESTPPSEELELDKWKTTMKSSVQEECVSTISSSKDEDPLAATREFIEMWRLLGREVPEHITEEELKTLMECVSNTAKKKYLKYLYTKEKVKKARQIKKEMKAAAREEAKNIKLLETTEEDKQKNFLFLRLWDRNMDIAMGWKGAQAMQFGQPLVFDMAYENYMKRKELQNTVSQLLESEGWNRRNVDPFHIYFCNLKIDGALHRELVKRYQEKWDKLLLTSTEKSHVDLFPKDSIIYLTADSPNVMTTFRHDKVYVIGSFVDKSMQPGTSLAKAKRLNLATECLPLDKYLQWEIGNKNLTLDQMIRILLCLKNNGNWQEALQFVPKRKHTGFLEISQHSQEFINRLKKAKT
B5: HNRNPA2B1 (protein, UniProt P22626 1-353, looked up)
Heterogeneous nuclear …: MEKTLETVPLERKKREKEQFRKLFIGGLSFETTEESLRNYYEQWGKLTDCVVMRDPASKRSRGFGFVTFSSMAEVDAAMAARPHSIDGRVVEPKRAVAREESGKPGAHVTVKKLFVGGIKEDTEEHHLRDYFEEYGKIDTIEIITDRQSGKKRGFGFVTFDDHDPVDKIVLQKYHTINGHNAEVRKALSRQEMQEVQSSRSGRGGNFGFGDSRGGGGNFGPGPGSNFRGGSDGYGSGRGFGDGYNGYGGGPGGGNFGGSPGYGGGRGGYGGGGPGYGNQGGGYGGGYDNYGGGNYGSGNYNDFGNYNQQPSNYGPMKSGNFGGSRNMGGPYGGGNYGPGGSGGSGGYGGRSRY
B6: SLC2A1 (protein, UniProt P11166 1-492, looked up)
Solute carrier family 2, …: MEPSSKKLTGRLMLAVGGAVLGSLQFGYNTGVINAPQKVIEEFYNQTWVHRYGESILPTTLTTLWSLSVAIFSVGGMIGSFSVGLFVNRFGRRNSMLMMNLLAFVSAVLMGFSKLGKSFEMLILGRFIIGVYCGLTTGFVPMYVGEVSPTALRGALGTLHQLGIVVGILIAQVFGLDSIMGNKDLWPLLLSIIFIPALLQCIVLPFCPESPRFLLINRNEENRAKSVLKKLRGTADVTHDLQEMKEESRQMMREKKVTILELFRSPAYRQPILIAVVLQLSQQLSGINAVFYYSTSIFEKAGVQQPVYATIGSGIVNTAFTVVSLFVVERAGRRTLHLIGLAGMAGCAILMTIALALLEQLPWMSYLSIVAIFGFVAFFEVGPGPIPWFIVAELFSQGPRPAAIAVAGFSNWTSNFIVGMCFQYVEQLCGPYVFIIFTVLLVLFFIFTYFKVPETKGRTFDEIASGFRQGGASQSDKTPEELFHPLGADSQV
B7: RBM39 (protein, UniProt Q14498 2-530, looked up)
RNA-binding protein 39: ADDIDIEAMLEAPYKKDENKLSSANGHEERSKKRKKSKSRSRSHERKRSKSKERKRSRDRERKKSKSRERKRSRSKERRRSRSRSRDRRFRGRYRSPYSGPKFNSAIRGKIGLPHSIKLSRRRSRSKSPFRKDKSPVREPIDNLTPEERDARTVFCMQLAARIRPRDLEEFFSTVGKVRDVRMISDRNSRRSKGIAYVEFVDVSSVPLAIGLTGQRVLGVPIIVQASQAEKNRAAAMANNLQKGSAGPMRLYVGSLHFNITEDMLRGIFEPFGRIESIQLMMDSETGRSKGYGFITFSDSECAKKALEQLNGFELAGRPMKVGHVTERTDASSASSFLDSDELERTGIDLGTTGRLQLMARLAEGTGLQIPPAAQQALQMSGSLAFGAVAEFSFVIDLQTRLSQQTEASALAAAASVQPLATQCFQLSNMFNPQTEEEVGWDTEIKDDVIEECNKHGGVIHIYVDKNSAQGNVYVKCPSIAAAIAAVNALHGRWFAGKMITAAYVPLPTYHNLFPDSMTATQLLVPSRR
B8: DSG1 (protein, UniProt Q02413 50-1049, looked up)
Desmoglein-1: EWIKFAAACREGEDNSKRNPIAKIHSDCAANQQVTYRISGVGIDQPPYGIFVINQKTGEINITSIVDREVTPFFIIYCRALNSMGQDLERPLELRVRVLDINDNPPVFSMATFAGQIEENSNANTLVMILNATDADEPNNLNSKIAFKIIRQEPSDSPMFIINRNTGEIRTMNNFLDREQYGQYALAVRGSDRDGGADGMSAECECNIKILDVNDNIPYMEQSSYTIEIQENTLNSNLLEIRVIDLDEEFSANWMAVIFFISGNEGNWFEIEMNERTNVGILKVVKPLDYEAMQSLQLSIGVRNKAEFHHSIMSQYKLKASAISVTVLNVIEGPVFRPGSKTYVVTGNMGSNDKVGDFVATDLDTGRPSTTVRYVMGNNPADLLAVDSRTGKLTLKNKVTKEQYNMLGGKYQGTILSIDDNLQRTCTGTININIQSFGNDDRTNTEPNTKITTNTGRQESTSSTNYDTSTTSTDSSQVYSSEPGNGAKDLLSDNVHFGPAGIGLLIMGFLVLGLVPFLMICCDCGGAPRSAAGFEPVPECSDGAIHSWAVEGPQPEPRDITTVIPQIPPDNANIIECIDNSGVYTNEYGGREMQDLGGGERMTGFELTEGVKTSGMPEICQEYSGTLRRNSMRECREGGLNMNFMESYFCQKAYAYADEDEGRPSNDCLLIYDIEGVGSPAGSVGCCSFIGEDLDDSFLDTLGPKFKKLADISLGKESYPDLDPSWPPQSTEPVCLPQETEPVVSGHPPISPHFGTTTVISESTYPSGPGVLHPKPILDPLGYGNVTVTESYTTSDTLKPSVHVHDNRPASNVVVTERVVGPISGADLHGMLEMPDLRDGSNVIVTERVIAPSSSLPTSLTIHHPRESSNVVVTERVIQPTSGMIGSLSMHPELANAHNVIVTERVVSGAGVTGISGTTGISGGIGSSGLVGTSMGAGSGALSGAGISGGGIGLSSLGGTASIGHMRSSSDHHFNQTIGSASPSTARSRITKYSTVQYSK
B9: KPRP (protein, UniProt Q5T749 1-579, looked up)
Keratinocyte proline-rich …: MCDQQQIQCRLPLQQCCVKGPSFCSSQSPFAQSQVVVQAPCEMQIVDCPASCPVQVCQVSDQAPCQSQTTQVKCQSKTKQVKGQAQCQSKTTQVKGQAASQSQTSSVQSQAPCQSEVSYVQCEASQPVQTCFVECAPVCYTETCYVECPVQNYVPCPAPQPVQMYRGRPAVCQPQGRFSTQCQYQGSYSSCGPQFQSRATCNNYTPQFQLRPSYSSCFPQYRSRTSFSPCVPQCQTQGSYGSFTEQHRSRSTSRCLPPPRRLQLFPRSCSPPRRFEPCSSSYLPLRPSEGFPNYCTPPRRSEPIYNSRCPRRPISSCSQRRGPKCRIEISSPCCPRQVPPQRCPVEIPPIRRRSQSCGPQPSWGASCPELRPHVEPRPLPSFCPPRRLDQCPESPLQRCPPPAPRPRLRPEPCISLEPRPRPLPRQLSEPCLYPEPLPALRPTPRPVPLPRPGQCEIPEPRPCLQPCEHPEPCPRPEPIPLPAPCPSPEPCRETWRSPSPCWGPNPVPYPGDLGCHESSPHRLDTEAPYCGPSSYNQGQESGAGCGPGDVFPERRGQDGHGDQGNAFAGVKGEAKSAYF
B10: JUP (protein, UniProt P14923 1-745, looked up)
Junction plakoglobin: MEVMNLMEQPIKVTEWQQTYTYDSGIHSGANTCVPSVSSKGIMEEDEACGRQYTLKKTTTYTQGVPPSQGDLEYQMSTTARAKRVREAMCPGVSGEDSSLLLATQVEGQATNLQRLAEPSQLLKSAIVHLINYQDDAELATRALPELTKLLNDEDPVVVTKAAMIVNQLSKKEASRRALMGSPQLVAAVVRTMQNTSDLDTARCTTSILHNLSHHREGLLAIFKSGGIPALVRMLSSPVESVLFYAITTLHNLLLYQEGAKMAVRLADGLQKMVPLLNKNNPKFLAITTDCLQLLAYGNQESKLIILANGGPQALVQIMRNYSYEKLLWTTSRVLKVLSVCPSNKPAIVEAGGMQALGKHLTSNSPRLVQNCLWTLRNLSDVATKQEGLESVLKILVNQLSVDDVNVLTCATGTLSNLTCNNSKNKTLVTQNSGVEALIHAILRAGDKDDITEPAVCALRHLTSRHPEAEMAQNSVRLNYGIPAIVKLLNQPNQWPLVKATIGLIRNLALCPANHAPLQEAAVIPRLVQLLVKAHQDAQRHVAAGTQQPYTDGVRMEEIVEGCTGALHILARDPMNRMEIFRLNTIPLFVQLLYSSVENIQRVAAGVLCELAQDKEAADAIDAEGASAPLMELLHSRNEGTATYAAAVLFRISEDKNPDYRKRVSVELTNSLFKHDPAAWEAAQSMIPINEPYGDDMDATYRPMYSSDVPLDPLEMHMDMDGDYPIDTYSDGLRPPYPTADHMLA

Tested on: HCoV-OC43 gRNA and sgRNA
Type: binding
Conditions: 24 hpi; type n_24_v; tested against no-probe control; FDR<10%

| Molecule | target (unweighted spectral count, OC43 Probe II capture) |
| --- | --- |
| B1 | 4 |

Same assay, conditions: 36 hpi; type n_36_v; tested against no-probe control; FDR<10%

| Molecule | target (unweighted spectral count, OC43 Probe II capture) |
| --- | --- |
| B2 | 34 |

Same assay, conditions: OC43 Probe II, 12 hpi (type n_12_v), infected cells; tested against no-probe control

| Molecule | target (unweighted spectral count) |
| --- | --- |
| B3 | 6 |
| B4 | 6 |
| B5 | 28 |
| B6 | 6 |
| B2 | 13 |
| B1 | 4 |
| B7 | 6 |

Same assay, conditions: OC43 Probe II, 24 hpi (type n_24_v), infected cells; tested against no-probe control

| Molecule | target (unweighted spectral count) |
| --- | --- |
| B8 | 8 |
| B9 | 15 |
| B10 | 11 |
| B2 | 27 |
| B7 | 10 |

Same assay, conditions: type n_48_v; 48 hpi; OC43 Probe II capture on infected cells

| Molecule | target (unweighted spectral count, OC43 Probe II) |
| --- | --- |
| B5 | 86 |
| B2 | 34 |

Same assay, conditions: type n_48_v; 48 hpi; no-probe control on infected cells

| Molecule | background (unweighted spectral count, no-probe control) |
| --- | --- |
| B5 | 7 |
| B2 | 4 |
